# In IntAct's records for PubMed 20485341:
# B1: Interleukin-1 receptor-associated kinase 4 (Homo sapiens), Q9NWZ3 (parent)
# chain: MNKPITPSTYVRCLNVGLIRKLSDFIDPQEGWKKLAVAIKKPSGDDRYNQFHIRRFEALLQTGKSPTSELLFDWGTTNCTVGDLVDLLIQNEFFAPASLLLPDAVPKTANTLPSKEAITVQQKQMPFCDKDRTLMTPVQNLEQSYMPPDSSSPENKSLEVSDTRFHSFSFYELKNVTNNFDERPISVGGNKMGEGGFGVVYKGYVNNTTVAVKKLAAMVDITTEELKQQFDQEIKVMAKCQHENLVELLGFSSDGDDLCLVYVYMPNGSLLDRLSCLDGTPPLSWHMRCKIAQGAANGINFLHENHHIHRDIKSANILLDEAFTAKISDFGLARASEKFAQTVMTSRIVGTTAYMAPEALRGEITPKSDIYSFGVVLLEIITGLPAVDEHREPQLLLDIKEEIEDEEKTIEDYIDKKMNDADSTSVEAMYSVASQCLHEKKNKRPDIKKVQQLLQEMTAS
# B2: Interleukin-1 receptor-associated kinase 4 (Homo sapiens), Q9NWZ3 (parent)
# chain: B1 chain
# partner: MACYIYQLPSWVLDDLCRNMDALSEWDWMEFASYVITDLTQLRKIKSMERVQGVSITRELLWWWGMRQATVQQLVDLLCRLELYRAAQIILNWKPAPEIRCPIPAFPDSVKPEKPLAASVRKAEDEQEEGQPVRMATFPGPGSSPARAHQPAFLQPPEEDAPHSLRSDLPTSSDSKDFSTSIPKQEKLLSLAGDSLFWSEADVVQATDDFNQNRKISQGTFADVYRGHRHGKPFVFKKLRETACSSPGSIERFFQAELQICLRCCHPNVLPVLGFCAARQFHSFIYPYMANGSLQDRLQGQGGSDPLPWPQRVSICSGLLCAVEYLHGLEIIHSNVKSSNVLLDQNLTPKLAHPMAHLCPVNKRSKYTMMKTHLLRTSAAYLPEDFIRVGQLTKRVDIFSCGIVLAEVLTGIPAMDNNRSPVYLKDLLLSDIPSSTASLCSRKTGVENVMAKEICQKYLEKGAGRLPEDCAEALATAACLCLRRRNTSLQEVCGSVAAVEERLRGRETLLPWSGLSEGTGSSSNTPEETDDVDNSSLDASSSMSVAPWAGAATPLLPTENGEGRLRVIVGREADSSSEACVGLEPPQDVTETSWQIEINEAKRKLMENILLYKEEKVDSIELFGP
# Variants of: B1
# Settings: with MYD88, Q99836-1
# MYD88, Q99836-1, sequence (Q99836 whole entry): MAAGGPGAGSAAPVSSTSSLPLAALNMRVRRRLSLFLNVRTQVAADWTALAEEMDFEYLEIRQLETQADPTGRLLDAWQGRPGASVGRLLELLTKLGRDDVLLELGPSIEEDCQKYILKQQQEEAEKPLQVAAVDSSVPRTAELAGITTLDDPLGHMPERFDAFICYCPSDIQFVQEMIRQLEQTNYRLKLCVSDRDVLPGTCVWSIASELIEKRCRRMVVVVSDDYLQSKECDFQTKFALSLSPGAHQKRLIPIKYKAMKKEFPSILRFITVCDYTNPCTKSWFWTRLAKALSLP
row,Variant,effect of a mutation on the interaction
1,MNKPITPSTYVACLNVGLIRKLSDFIDPQEGWKKLAVAIKKPSGDDRYNQFHIRRFEALLQTGKSPTSELLFDWGTTNCTVGDLVDLLIQNEFFAPASLLLPDAVPKTANTLPSKEAITVQQKQMPFCDKDRTLMTPVQNLEQSYMPPDSSSPENKSLEVSDTRFHSFSFYELKNVTNNFDERPISVGGNKMGEGGFGVVYKGYVNNTTVAVKKLAAMVDITTEELKQQFDQEIKVMAKCQHENLVELLGFSSDGDDLCLVYVYMPNGSLLDRLSCLDGTPPLSWHMRCKIAQGAANGINFLHENHHIHRDIKSANILLDEAFTAKISDFGLARASEKFAQTVMTSRIVGTTAYMAPEALRGEITPKSDIYSFGVVLLEIITGLPAVDEHREPQLLLDIKEEIEDEEKTIEDYIDKKMNDADSTSVEAMYSVASQCLHEKKNKRPDIKKVQQLLQEMTAS [R12A],disrupting interaction
2,MNKPITPSTYVRCLNVGLIRKLSDFIDPQEGWKKLAVAIKKPSGDDRYNQFHIRRFEALLQTGKSPTSELLFDWGETNCTVGDLVDLLIQNEFFAPASLLLPDAVPKTANTLPSKEAITVQQKQMPFCDKDRTLMTPVQNLEQSYMPPDSSSPENKSLEVSDTRFHSFSFYELKNVTNNFDERPISVGGNKMGEGGFGVVYKGYVNNTTVAVKKLAAMVDITTEELKQQFDQEIKVMAKCQHENLVELLGFSSDGDDLCLVYVYMPNGSLLDRLSCLDGTPPLSWHMRCKIAQGAANGINFLHENHHIHRDIKSANILLDEAFTAKISDFGLARASEKFAQTVMTSRIVGTTAYMAPEALRGEITPKSDIYSFGVVLLEIITGLPAVDEHREPQLLLDIKEEIEDEEKTIEDYIDKKMNDADSTSVEAMYSVASQCLHEKKNKRPDIKKVQQLLQEMTAS [T76E],disrupting interaction
3,MNKPITPSTYVRCLNVGLIRKLSDFIDPQEGWKKLAVAIKKPSGDDRYNQFHIRRFEALLQTGKSPTSKLLFDWGTTNCTVGDLVDLLIQNEFFAPASLLLPDAVPKTANTLPSKEAITVQQKQMPFCDKDRTLMTPVQNLEQSYMPPDSSSPENKSLEVSDTRFHSFSFYELKNVTNNFDERPISVGGNKMGEGGFGVVYKGYVNNTTVAVKKLAAMVDITTEELKQQFDQEIKVMAKCQHENLVELLGFSSDGDDLCLVYVYMPNGSLLDRLSCLDGTPPLSWHMRCKIAQGAANGINFLHENHHIHRDIKSANILLDEAFTAKISDFGLARASEKFAQTVMTSRIVGTTAYMAPEALRGEITPKSDIYSFGVVLLEIITGLPAVDEHREPQLLLDIKEEIEDEEKTIEDYIDKKMNDADSTSVEAMYSVASQCLHEKKNKRPDIKKVQQLLQEMTAS [E69K],disrupting interaction
4,MNKPITPSTYVRCLNEGLIEKLSDFIDPQEGWKKLAVAIKKPSGDDRYNQFHIRRFEALLQTGKSPTSELLFDWGTTNCTVGDLVDLLIQNEFFAPASLLLPDAVPKTANTLPSKEAITVQQKQMPFCDKDRTLMTPVQNLEQSYMPPDSSSPENKSLEVSDTRFHSFSFYELKNVTNNFDERPISVGGNKMGEGGFGVVYKGYVNNTTVAVKKLAAMVDITTEELKQQFDQEIKVMAKCQHENLVELLGFSSDGDDLCLVYVYMPNGSLLDRLSCLDGTPPLSWHMRCKIAQGAANGINFLHENHHIHRDIKSANILLDEAFTAKISDFGLARASEKFAQTVMTSRIVGTTAYMAPEALRGEITPKSDIYSFGVVLLEIITGLPAVDEHREPQLLLDIKEEIEDEEKTIEDYIDKKMNDADSTSVEAMYSVASQCLHEKKNKRPDIKKVQQLLQEMTAS [V16E;R20E],disrupting interaction
5,MNKPITPSTYVRCLNVGLIRKLSDFIDPQEGWKKLAVAIKKPSGDDRYNQFHIRRFEALLQTGKSPTSELLFDWGTTECTVGDLVDLLIQNEFFAPASLLLPDAVPKTANTLPSKEAITVQQKQMPFCDKDRTLMTPVQNLEQSYMPPDSSSPENKSLEVSDTRFHSFSFYELKNVTNNFDERPISVGGNKMGEGGFGVVYKGYVNNTTVAVKKLAAMVDITTEELKQQFDQEIKVMAKCQHENLVELLGFSSDGDDLCLVYVYMPNGSLLDRLSCLDGTPPLSWHMRCKIAQGAANGINFLHENHHIHRDIKSANILLDEAFTAKISDFGLARASEKFAQTVMTSRIVGTTAYMAPEALRGEITPKSDIYSFGVVLLEIITGLPAVDEHREPQLLLDIKEEIEDEEKTIEDYIDKKMNDADSTSVEAMYSVASQCLHEKKNKRPDIKKVQQLLQEMTAS [N78E],disrupting interaction

# Variants of: B2
# Settings: with irak2_human IRAK2, O43187
row,Variant,effect of a mutation on the interaction
1,MNKPITPSTYVRCLNVGLIRKLSDFIDPQEGWKKLAVAIKKPSGDDRYNKFHIRRFEALLQTGKSPTSELLFDWGTTNCTVGDLVDLLIQNEFFAPASLLLPDAVPKTANTLPSKEAITVQQKQMPFCDKDRTLMTPVQNLEQSYMPPDSSSPENKSLEVSDTRFHSFSFYELKNVTNNFDERPISVGGNKMGEGGFGVVYKGYVNNTTVAVKKLAAMVDITTEELKQQFDQEIKVMAKCQHENLVELLGFSSDGDDLCLVYVYMPNGSLLDRLSCLDGTPPLSWHMRCKIAQGAANGINFLHENHHIHRDIKSANILLDEAFTAKISDFGLARASEKFAQTVMTSRIVGTTAYMAPEALRGEITPKSDIYSFGVVLLEIITGLPAVDEHREPQLLLDIKEEIEDEEKTIEDYIDKKMNDADSTSVEAMYSVASQCLHEKKNKRPDIKKVQQLLQEMTAS [Q50K],disrupting interaction
2,MNKPITPSTYVRCLNVGLIRKLSDFIDPQEGWKKLAVAIKKPSGDDRYNQDHIRRFEALLQTGKSPTSELLFDWGTTNCTVGDLVDLLIQNEFFAPASLLLPDAVPKTANTLPSKEAITVQQKQMPFCDKDRTLMTPVQNLEQSYMPPDSSSPENKSLEVSDTRFHSFSFYELKNVTNNFDERPISVGGNKMGEGGFGVVYKGYVNNTTVAVKKLAAMVDITTEELKQQFDQEIKVMAKCQHENLVELLGFSSDGDDLCLVYVYMPNGSLLDRLSCLDGTPPLSWHMRCKIAQGAANGINFLHENHHIHRDIKSANILLDEAFTAKISDFGLARASEKFAQTVMTSRIVGTTAYMAPEALRGEITPKSDIYSFGVVLLEIITGLPAVDEHREPQLLLDIKEEIEDEEKTIEDYIDKKMNDADSTSVEAMYSVASQCLHEKKNKRPDIKKVQQLLQEMTAS [F51D],disrupting interaction
3,MNKPITPSTYVRCLNVGLIRKLSDFIDPQEGWKKLAVAIKKPSGDDRYNQFHIDRFEALLQTGKSPTSELLFDWGTTNCTVGDLVDLLIQNEFFAPASLLLPDAVPKTANTLPSKEAITVQQKQMPFCDKDRTLMTPVQNLEQSYMPPDSSSPENKSLEVSDTRFHSFSFYELKNVTNNFDERPISVGGNKMGEGGFGVVYKGYVNNTTVAVKKLAAMVDITTEELKQQFDQEIKVMAKCQHENLVELLGFSSDGDDLCLVYVYMPNGSLLDRLSCLDGTPPLSWHMRCKIAQGAANGINFLHENHHIHRDIKSANILLDEAFTAKISDFGLARASEKFAQTVMTSRIVGTTAYMAPEALRGEITPKSDIYSFGVVLLEIITGLPAVDEHREPQLLLDIKEEIEDEEKTIEDYIDKKMNDADSTSVEAMYSVASQCLHEKKNKRPDIKKVQQLLQEMTAS [R54D],disrupting interaction
4,MNKPITPSTYVRCLNVGLIRKLSDFIDPQEGWKKLAVAIKKPSGDDRYNQFHIRRFEALLQTGKSPTSELLFDWGTTNCTVGDLVDLLIQNEFFKPASLLLPDAVPKTANTLPSKEAITVQQKQMPFCDKDRTLMTPVQNLEQSYMPPDSSSPENKSLEVSDTRFHSFSFYELKNVTNNFDERPISVGGNKMGEGGFGVVYKGYVNNTTVAVKKLAAMVDITTEELKQQFDQEIKVMAKCQHENLVELLGFSSDGDDLCLVYVYMPNGSLLDRLSCLDGTPPLSWHMRCKIAQGAANGINFLHENHHIHRDIKSANILLDEAFTAKISDFGLARASEKFAQTVMTSRIVGTTAYMAPEALRGEITPKSDIYSFGVVLLEIITGLPAVDEHREPQLLLDIKEEIEDEEKTIEDYIDKKMNDADSTSVEAMYSVASQCLHEKKNKRPDIKKVQQLLQEMTAS [A95K],disrupting interaction
5,MNKPITPSTYVRCLNVGLIRKLSDDIDPQEGWKKLAVAIKKPSGDDRYNQFHIRRFEALLQTGKSPTSELLFDWGTTNCTVGDLVDLLIQNEFFAPASLLLPDAVPKTANTLPSKEAITVQQKQMPFCDKDRTLMTPVQNLEQSYMPPDSSSPENKSLEVSDTRFHSFSFYELKNVTNNFDERPISVGGNKMGEGGFGVVYKGYVNNTTVAVKKLAAMVDITTEELKQQFDQEIKVMAKCQHENLVELLGFSSDGDDLCLVYVYMPNGSLLDRLSCLDGTPPLSWHMRCKIAQGAANGINFLHENHHIHRDIKSANILLDEAFTAKISDFGLARASEKFAQTVMTSRIVGTTAYMAPEALRGEITPKSDIYSFGVVLLEIITGLPAVDEHREPQLLLDIKEEIEDEEKTIEDYIDKKMNDADSTSVEAMYSVASQCLHEKKNKRPDIKKVQQLLQEMTAS [F25D],disrupting interaction
